From the supplement of paper PMC7125110
± gives the standard error. For some of these results: This sample holds only a part of the variants without activity.

B1: glmS ribozyme (parent)
chain: AUAAAAGCGCCAGAACUACAGAAAUGUAGUUGACGAGGAGGAGGUUUAUCGAAUUUUCGGCGGAUGCCUCCAAA

Tests used:
Conditions in all cases: with glucosamine-6-phosphate
glucosamine-6-phosphate [1] = variants of: B1; experiment: kcat; higher = faster cleavage; RNA array
Summary of the method: (§1)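 kcat and KM were obtained from weighted Michaelis–Menten fits across concentrations of kobs values. Those came from one- or two-exponential decay fits to per-tile medians normalised to baseline and to non-cleaving reference variants. The variants were barcoded ribozymes transcribed in situ by E. coli RNA polymerase on sequenced MiSeq chips and tracked through a hybridised Cy3 probe at 37 °C, with 40 μM to 10 mM glucosamine-6-phosphate in HEPES/KCl/Mg(OAc)2 buffer flowed in.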

glucosamine-6-phosphate [2] = variants of: B1; experiment: self-cleavage kobs at 2500 uM GlcN6P; higher = faster cleavage; RNA array
Summary of the method: as §1

glucosamine-6-phosphate [3] = variants of: B1; experiment: self-cleavage kobs at 10000 uM GlcN6P; higher = faster cleavage; RNA array
Summary of the method: as §1

glucosamine-6-phosphate [4] = variants of: B1; experiment: KM; higher = weaker cofactor use; RNA array
Summary of the method: as §1

glucosamine-6-phosphate [5] = variants of: B1; experiment: self-cleavage kobs at 40 uM GlcN6P; higher = faster cleavage; RNA array
Summary of the method: as §1

glucosamine-6-phosphate [6] = variants of: B1; experiment: self-cleavage kobs at 160 uM GlcN6P; higher = faster cleavage; RNA array
Summary of the method: as §1

glucosamine-6-phosphate [7] = variants of: B1; experiment: self-cleavage kobs at 640 uM GlcN6P; higher = faster cleavage; RNA array
Summary of the method: as §1

Variant	kcat (glucosamine-6-phosphate [1])	self-cleavage kobs at 2500 uM GlcN6P (glucosamine-6-phosphate [2])	self-cleavage kobs at 10000 uM GlcN6P (glucosamine-6-phosphate [3])	KM (glucosamine-6-phosphate [4])	self-cleavage kobs at 40 uM GlcN6P (glucosamine-6-phosphate [5])	self-cleavage kobs at 160 uM GlcN6P (glucosamine-6-phosphate [6])	self-cleavage kobs at 640 uM GlcN6P (glucosamine-6-phosphate [7])
G32C U55G	0.000137 ± 1.4e-05 s⁻¹	2.64e-05 ± 8.4e-06 s⁻¹	6.68e-05 ± 1.2e-05 s⁻¹				
C16U C61U	1.75e-05 ± 1.4e-06 s⁻¹						
A36C C71A	< 1e-05 s⁻¹						
A6U G40U	2.6e-05 ± 7e-07 s⁻¹		1.8e-05 ± 7.6e-06 s⁻¹	4450 ± 330 µM			
C11U A53G	0.00166 ± 9.2e-05 s⁻¹	0.00111 ± 0.00013 s⁻¹	0.00145 ± 0.00012 s⁻¹	1400 ± 120 µM	5.07e-05 ± 5.9e-06 s⁻¹	0.000156 ± 2e-05 s⁻¹	0.000513 ± 4.2e-05 s⁻¹
C11U A53C	0.000605 ± 0.00015 s⁻¹	0.000307 ± 4.8e-05 s⁻¹	0.000412 ± 6.8e-05 s⁻¹	3780 ± 1300 µM		3.37e-05 ± 1.3e-05 s⁻¹	8.09e-05 ± 1e-05 s⁻¹
A48G C71U	8.1e-05 ± 1.3e-05 s⁻¹	0.000101 ± 1.1e-05 s⁻¹	7.03e-05 ± 6.3e-06 s⁻¹				4.86e-05 ± 8.2e-06 s⁻¹
U46C C67A	0.000818 ± 0.00012 s⁻¹	0.00062 ± 0.00012 s⁻¹	0.000676 ± 0.00011 s⁻¹	1380 ± 390 µM	3.57e-05 ± 1.7e-05 s⁻¹	6.58e-05 ± 2.1e-05 s⁻¹	0.000284 ± 5.6e-05 s⁻¹
C16U U31C	0.00735 ± 0.00094 s⁻¹	0.0036 ± 0.00062 s⁻¹	0.00694 ± 0.0011 s⁻¹	1980 ± 350 µM	0.000149 ± 2.1e-05 s⁻¹	0.000588 ± 0.00011 s⁻¹	0.00161 ± 0.00048 s⁻¹
G32U U49G	5.32e-05 ± 7.1e-06 s⁻¹	4.54e-05 ± 1.2e-05 s⁻¹	4.7e-05 ± 6.6e-06 s⁻¹		< 1e-05 s⁻¹		
A12C G40U	0.00214 ± 0.00032 s⁻¹	0.0012 ± 0.00012 s⁻¹	0.00165 ± 0.00013 s⁻¹	2490 ± 550 µM	4.4e-05 ± 6.1e-06 s⁻¹	0.000109 ± 1.2e-05 s⁻¹	0.000471 ± 5e-05 s⁻¹
G7U C71G	1.1e-05 ± 2.1e-06 s⁻¹					< 1e-05 s⁻¹	
A14U U54C	0.00754 ± 0.0024 s⁻¹	0.00338 ± 0.00053 s⁻¹	0.00856 ± 0.0012 s⁻¹	1830 ± 830 µM	0.00021 ± 2.8e-05 s⁻¹	0.000513 ± 8.8e-05 s⁻¹	0.00201 ± 0.00026 s⁻¹
U47G C68G	8.45e-05 ± 1.2e-05 s⁻¹	0.000104 ± 1.2e-05 s⁻¹	7.41e-05 ± 6.8e-06 s⁻¹		5.34e-05 ± 1e-05 s⁻¹	0.000166 ± 2.8e-05 s⁻¹	8.26e-05 ± 1e-05 s⁻¹
A33U C50U G59U	1.02e-05 ± 3e-06 s⁻¹						
C10A A12G	< 1e-05 s⁻¹		< 1e-05 s⁻¹		< 1e-05 s⁻¹		
A39G U65G	0.0131 ± 0.0026 s⁻¹	0.00553 ± 0.0018 s⁻¹	0.0103 ± 0.0015 s⁻¹	3200 ± 790 µM	0.000177 ± 2.2e-05 s⁻¹	0.00068 ± 0.00014 s⁻¹	0.00161 ± 0.00039 s⁻¹
U57C U65A	1.91e-05 ± 3.6e-07 s⁻¹			1410 ± 140 µM	< 1e-05 s⁻¹		

Variant	kcat (glucosamine-6-phosphate [1])	self-cleavage kobs at 2500 uM GlcN6P (glucosamine-6-phosphate [2])	self-cleavage kobs at 10000 uM GlcN6P (glucosamine-6-phosphate [3])	KM (glucosamine-6-phosphate [4])	self-cleavage kobs at 40 uM GlcN6P (glucosamine-6-phosphate [5])	self-cleavage kobs at 160 uM GlcN6P (glucosamine-6-phosphate [6])	self-cleavage kobs at 640 uM GlcN6P (glucosamine-6-phosphate [7])
A39C U56A	0.00331 ± 0.00086 s⁻¹	0.00133 ± 0.00019 s⁻¹	0.00238 ± 0.00034 s⁻¹	4000 ± 1500 µM	5.87e-05 ± 1.3e-05 s⁻¹	0.000129 ± 3.6e-05 s⁻¹	0.000412 ± 5.2e-05 s⁻¹
A6U C61G	< 1e-05 s⁻¹					< 1e-05 s⁻¹	< 1e-05 s⁻¹
A14C C70A	0.000106 ± 1.1e-05 s⁻¹	9.55e-05 ± 8e-06 s⁻¹	0.000102 ± 9.4e-06 s⁻¹	413 ± 170 µM		4.49e-05 ± 9.3e-06 s⁻¹	5.59e-05 ± 6.8e-06 s⁻¹
A12U C61G	< 1e-05 s⁻¹				< 1e-05 s⁻¹		
C34G G60U	< 1e-05 s⁻¹	< 1e-05 s⁻¹			< 1e-05 s⁻¹		
U55A U69G	6.88e-05 ± 8.3e-06 s⁻¹	7.05e-05 ± 8.6e-06 s⁻¹	5.04e-05 ± 1.3e-05 s⁻¹			8.26e-05 ± 1.6e-05 s⁻¹	6.99e-05 ± 1.2e-05 s⁻¹
U45A C50A	1.56e-05 ± 1.5e-06 s⁻¹						
A12C G29U U47G	0.00126 ± 0.00043 s⁻¹	0.000697 ± 0.00018 s⁻¹	0.000831 ± 0.00019 s⁻¹	4280 ± 2100 µM			0.000151 ± 3.1e-05 s⁻¹
A12U U46A	0.00538 ± 0.00031 s⁻¹	0.00326 ± 0.0006 s⁻¹	0.0045 ± 0.00062 s⁻¹	1720 ± 140 µM	0.000119 ± 1.5e-05 s⁻¹		0.00161 ± 0.00033 s⁻¹
C11G A33U U54G C67A C71U	1.15e-05 ± 1.8e-06 s⁻¹						
U49A C70U	2.22e-05 ± 1.1e-05 s⁻¹	3.89e-05 ± 1.9e-05 s⁻¹					
A39G G66C	0.00327 ± 0.0016 s⁻¹	0.00169 ± 0.00033 s⁻¹			7.7e-05 ± 2.6e-05 s⁻¹	0.000141 ± 3.4e-05 s⁻¹	0.000484 ± 9.6e-05 s⁻¹
C16U C50A	2.89e-05 ± 7.6e-06 s⁻¹	4.91e-05 ± 1.8e-05 s⁻¹	2.32e-05 ± 1.1e-05 s⁻¹				
G32A C67U C71G	8.98e-05 ± 2.5e-05 s⁻¹	9.42e-05 ± 2.9e-05 s⁻¹	5.54e-05 ± 2.2e-05 s⁻¹		5.63e-05 ± 2.5e-05 s⁻¹	9.79e-05 ± 2.3e-05 s⁻¹	0.000178 ± 4.1e-05 s⁻¹
C58U C68A	3.52e-05 ± 1.5e-05 s⁻¹	5.08e-05 ± 2.1e-05 s⁻¹					
U31C C67G	4.05e-05 ± 1e-06 s⁻¹	3.49e-05 ± 6.3e-06 s⁻¹	3.83e-05 ± 5.5e-06 s⁻¹	467 ± 76 µM	< 1e-05 s⁻¹		2.33e-05 ± 8.8e-06 s⁻¹
G41C C71G	6.73e-05 ± 1.3e-05 s⁻¹	6.12e-05 ± 7.2e-06 s⁻¹	5.71e-05 ± 4.9e-06 s⁻¹				
